Results published in patent US20200353088A1, “PEPTIDE CONJUGATE CGRP RECEPTOR ANTAGONISTS AND METHODS OF PREPARATION AND USES THEREOF” (Auckland UniServices Limited, priority 2017, published 2020).
Like-named read-outs stand apart in the source and are kept apart here. Where no end group is shown, it is not given here. The star is where a group is joined. Ethyl(2-palmitoyloxy) = CCCCCCCCCCCCCCCC(=O)OCC*

Columns and labels:
[1] = target: T1, AMY1 (CTR/RAMP1) receptor (Homo sapiens, UniProt O60894+P30988); assay: cAMP assay with antagonist pre-incubation, with or without wash step, CTR/RAMP1 transfected Cos 7 cells; format: cell-based; details: 15 min antagonist pre-incubation, mean ± s.e.m (n)
T1 construct: expressed in transfected cells; host or cells: Cos 7 (African green monkey kidney), transient transfection with polyethylenimine
Procedure: Cos 7 cells were cultured in Dulbecco's Modified Eagle Medium (DMEM) supplemented with 8% heat inactivated fetal bovine serum and kept in a 37° C. humidified 95% air/5% CO2 incubator. […] In a different specific experimental paradigm, media was replaced with DMEM containing 1 mM isobutylmethylxanthine and 0.1% bovine serum albumin for 30 min. After this period, 25 μl of antagonist or media was added for 15 minutes at 37° C. as a pre-incubation period. After pre-incubation, the antagonist or media were aspirated from some wells, washed once with phosphate-buffered saline and replaced with 75 μl new media. The other wells with antagonist were not washed. […] Once human alpha CGRP was added, the cells were incubated at 37° C. for 15 minutes. The media was then aspirated from the wells and reactions terminated with ice-cold absolute ethanol. […] Calculation of Antagonist Potency Values Data were analysed using Graphpad Prism 7. Antagonist pKB or pA2 values were obtained using Global Schild analysis. […] Where a single concentration of antagonist was used, pA2 values are used to describe antagonist potency.

[2] = target: T2, CGRP (CLR/RAMP1) receptor (Homo sapiens, UniProt O60894+Q16602); assay: Antagonism of CGRP-induced cAMP accumulation in Cos 7 cells transfected with CLR/RAMP1; format: cell-based
T2 construct: expressed in transfected cells; host or cells: Cos 7 (African green monkey kidney), transient transfection with polyethylenimine
Procedure: (§1) 1. Antagonism of CGRP-Induced cAMP Accumulation in Transfected CGRP Receptor Expressing Cells
(§2) Simian vacuolating virus 40 (SV40) transformed African green monkey kidney (Cos 7) cells were transiently transfected with calcitonin receptor-like receptor (CLR) or calcitonin receptor (CTR) together with receptor activity-modifying protein 1 (RAMP1) to form CGRP or AMY1(a) receptors.
(§3) On the day of experimentation, media was replaced with 50 μl DMEM containing 1 mM isobutylmethylxanthine and 0.1% bovine serum albumin for 30 min. All peptides were diluted in assay medium and after the 30 min incubation, 25 μl antagonists were added, followed immediately by 25 μl human alpha CGRP (hαCGRP), giving a total assay volume of 100 μl. Once human alpha CGRP was added, the cells were incubated at 37° C. for 15 minutes. The media was then aspirated from the wells and reactions terminated with ice-cold absolute ethanol. Ethanol was evaporated to dryness and cAMP was quantified using a commercially-available assay (LANCE Perkin Elmer).
(§4) 3. Calculation of Antagonist Potency Values
(§5) Data were analysed using Graphpad Prism 7. Antagonist pKB or pA2 values were obtained using Global Schild analysis. […] Where a single concentration of antagonist was used, pA2 values are used to describe antagonist potency.

[3] = target: T3, CGRP receptor endogenously expressed in SK-N-MC cells (Homo sapiens, UniProt O60894+Q16602); assay: Antagonism of CGRP-induced cAMP accumulation in SK-N-MC cells; format: cell-based
T3 construct: SK-N-MC are human neuroblastoma-derived cells that endogenously express a CGRP receptor; endogenous in cells; host or cells: SK-N-MC human neuroblastoma-derived cells
Procedure: The cells were cultured in DMEM supplemented with 8% heat inactivated fetal bovine serum and kept in a 37° C. humidified 95% air/5% CO2 incubator. […] On the day of experimentation, media was replaced with DMEM containing 1 mM isobutylmethylxanthine and 0.1% bovine serum albumin for 30 min. After this period antagonists were added, followed by human alpha CGRP. Once human alpha CGRP was added, the cells were incubated at 37° C. for 15 minutes. The media was then aspirated from the wells and reactions terminated with ice-cold absolute ethanol. […] Calculation of Antagonist Potency Values Data were analysed using Graphpad Prism 7. Antagonist pKB or pA2 values were obtained using Global Schild analysis. […] Where a single concentration of antagonist was used, pA2 values are used to describe antagonist potency.

[4] = target: T1, AMY1 (CTR/RAMP1) receptor; assay: Antagonism of CGRP-induced cAMP accumulation in Cos 7 cells transfected with CTR/RAMP1; format: cell-based; details: transfected Cos-7 cells, human alpha CGRP, mean ± s.e.m (n), read-out: Antagonist potency (pKB), AMY1 (CTR/RAMP1) (converted)
Procedure: as §1, §2, §3, §4, §5

[5] = target: T4, human CGRP receptor (CLR/RAMP1), transiently transfected in Cos 7 cells (human, UniProt Q16602 23-461; O60894 27-148); assay: cell-based or functional assay
[6] = target: human AMY1(a) receptor (CTR/RAMP1), transiently transfected in Cos 7 cells (human), P30988; assay: cell-based or functional assay
[7] = target: T4, human CGRP receptor (CLR/RAMP1), …; assay: cell-based or functional assay; remark: listed apart in the source
[8] = target: CGRP receptor endogenously expressed by SK-N-MC human neuroblastoma-derived cells (human, UniProt Q16602 23-461; O60894 27-148); assay: cell-based or functional assay
[9] = target: T4, human CGRP receptor (CLR/RAMP1), …; assay: cell-based or functional assay; remark: listed apart in the source

Chain of human AMY1(a) receptor (CTR/RAMP1), transiently transfected in Cos 7 cells (human), P30988 (P30988 25-474, chain 1 of 2): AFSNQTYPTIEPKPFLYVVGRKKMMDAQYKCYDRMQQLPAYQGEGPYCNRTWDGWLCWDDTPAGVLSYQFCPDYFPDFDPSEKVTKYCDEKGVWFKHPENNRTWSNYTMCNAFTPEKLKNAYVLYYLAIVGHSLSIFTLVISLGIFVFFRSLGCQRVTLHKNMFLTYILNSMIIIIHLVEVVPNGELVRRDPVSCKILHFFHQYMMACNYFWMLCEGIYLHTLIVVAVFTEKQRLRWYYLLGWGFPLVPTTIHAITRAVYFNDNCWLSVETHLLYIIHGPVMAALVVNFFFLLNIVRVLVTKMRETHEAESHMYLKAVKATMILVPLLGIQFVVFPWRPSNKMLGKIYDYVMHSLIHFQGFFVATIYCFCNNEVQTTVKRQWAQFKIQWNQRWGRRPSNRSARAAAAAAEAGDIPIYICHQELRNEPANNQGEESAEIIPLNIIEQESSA
Chain of human AMY1(a) receptor (CTR/RAMP1), transiently transfected in Cos 7 cells (human), P30988 (O60894 27-148, chain 2 of 2, further chain): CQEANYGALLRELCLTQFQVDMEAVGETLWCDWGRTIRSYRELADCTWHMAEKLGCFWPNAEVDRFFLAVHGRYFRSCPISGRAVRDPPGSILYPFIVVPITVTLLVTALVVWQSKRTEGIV
T1 sequence (P30988 25-474): as the sequence (P30988 25-474, chain 1 of 2) above
T1 sequence (O60894 27-148): as the sequence (O60894 27-148, chain 2 of 2, further chain) above
T4 sequence (Q16602 23-461, chain 1 of 2): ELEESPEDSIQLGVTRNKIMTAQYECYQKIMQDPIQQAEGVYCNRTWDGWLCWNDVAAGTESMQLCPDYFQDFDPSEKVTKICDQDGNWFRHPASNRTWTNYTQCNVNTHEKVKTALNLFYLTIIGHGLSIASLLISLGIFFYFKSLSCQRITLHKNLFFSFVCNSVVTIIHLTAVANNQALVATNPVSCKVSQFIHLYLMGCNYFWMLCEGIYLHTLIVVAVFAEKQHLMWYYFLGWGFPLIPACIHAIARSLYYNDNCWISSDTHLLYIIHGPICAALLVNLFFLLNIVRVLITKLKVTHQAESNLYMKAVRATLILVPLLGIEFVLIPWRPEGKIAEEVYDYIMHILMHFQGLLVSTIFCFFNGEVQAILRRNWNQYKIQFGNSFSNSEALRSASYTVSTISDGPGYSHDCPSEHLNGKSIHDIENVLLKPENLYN
T4 sequence (O60894 27-148, chain 2 of 2): as the sequence (O60894 27-148, chain 2 of 2, further chain) above
Chain of CGRP receptor endogenously expressed by SK-N-MC human neuroblastoma-derived cells (Q16602 23-461, chain 1 of 2): as the sequence (Q16602 23-461, chain 1 of 2) above
Chain of CGRP receptor endogenously expressed by SK-N-MC human neuroblastoma-derived cells (O60894 27-148, chain 2 of 2): as the sequence (O60894 27-148, chain 2 of 2, further chain) above
T2 sequence (Q16602 23-461): as the sequence (Q16602 23-461, chain 1 of 2) above
T2 sequence (O60894 27-148): as the sequence (O60894 27-148, chain 2 of 2, further chain) above
T3 sequence (Q16602 23-461): as the sequence (Q16602 23-461, chain 1 of 2) above
T3 sequence (O60894 27-148): as the sequence (O60894 27-148, chain 2 of 2, further chain) above

A2, with wash (cAMP assay, Cos 7) [5] [nM] | A2, without wash (cAMP assay, Cos 7) [5] [nM] | antagonist potency pA2, with wash (cAMP assay, Cos 7) [5] | antagonist potency pA2, without wash (cAMP assay, Cos 7) [5] | A2 (antilog of the negative pA2; cAMP assay, Cos 7) [6] [nM] | A2, with wash (cAMP assay, Cos 7) [6] [nM] | A2, without wash (cAMP assay, Cos 7) [6] [nM] | Fold change reduction in pA2 with wash [6] [fold] | antagonist potency pA2, with wash (cAMP assay, Cos 7) [6] | antagonist potency pA2, without wash (cAMP assay, Cos 7) [6] | antagonist potency pKB (cAMP assay, Cos 7) [6] | A2 (antilog of the negative pA2; cAMP assay, Cos 7) [7] [nM] | Selectivity (fold-difference CGRP vs. AMY1) [7] [fold] | antagonist potency pKB (cAMP assay, Cos 7) [7] | A2 (antilog of the negative pA2; cAMP assay, SK-N-MC) [8] [pM] | antagonist potency pA2 (cAMP assay, SK-N-MC) [8] | Fold change reduction in pA2 with wash [9] [fold] | Molecule | also measured
– | – | – | – | – | – | – | – | – | – | – | – | – | – | – | – | – | CCCCCCCCCCCCCCCC(=O)OCCSC[C@H](N)C(=O)N[C@H](C(=O)N[C@@H](Cc1c[nH]cn1)C(=O)N[C@@H](CCCNC(=N)N)C(=O)N[C@@H](CC(C)C)C(=O)N[C@@H](C)C(=O)NCC(=O)N[C@@H](CC(C)C)C(=O)N[C@@H](CC(C)C)C(=O)N[C@@H](CO)C(=O)N[C@@H](CCCNC(=N)N)C(=O)N[C@@H](CO)C(=O)NCC(=O)NCC(=O)N[C@H](C(=O)N[C@H](C(=O)N[C@@H](CCCCN)C(=O)N[C@@H](CC(N)=O)C(=O)N[C@@H](CC(N)=O)C(=O)N[C@@H](Cc1ccccc1)C(=O)N[C@H](C(=O)N1CCC[C@H]1C(=O)N[C@H](C(=O)N[C@@H](CC(N)=O)C(=O)N[C@H](C(=O)NCC(=O)N[C@@H](CO)C(=O)N[C@@H](CCCCN)C(=O)N[C@@H](C)C(=O)N[C@@H](Cc1ccccc1)C(N)=O)C(C)C)[C@@H](C)O)C(C)C)C(C)C)C(C)C)[C@@H](C)O [A4, V8C(S-Pam) CGRP8-37] | Kb ([1]; not washed, read-out: pA2, AMY1 (CTR/RAMP1), Without wash (converted)): 1.05 nM; Kb ([1]; washed once with PBS, read-out: pA2, AMY1 (CTR/RAMP1), With wash (converted)): 2.88 nM; Selectivity (fold-difference CGRP vs. AMY1) ([2]; CGRP (CLR/RAMP1) vs. AMY1 (CTR/RAMP1), Cos-7 cells): 12 fold; Kb ([2]; transfected Cos-7 cells, cAMP, human alpha CGRP, mean ± s.e.m (n), Global Schild analysis, read-out: Antagonist potency (pKB), CGRP (CLR/RAMP1) (converted)): 0.589 nM; Kb ([3]; human alpha CGRP, mean ± s.e.m (n), read-out: SK-N-MC (pA2) (converted)): 0.0174 nM; Kb ([3]; read-out: A2 (antilog of the negative pA2), SK-N-MC (converted)): 0.02 nM; Kb [4]: 7.08 nM
3.3 | 0.15 | 8.48 | 9.82 | 7.1 | 2.9 | 1 | 2.8 | 8.54 | 8.98 | 8.15 | 0.59 | 12 | 9.23 | 20 | 10.8 | 22 | C(Ethyl(2-palmitoyloxy))THRLAGLLSRSGGVVKNNFVPTNVGSKAF-NH2 [V8C(S-Pam) CGRP8-37 A4] | –
0.74 | 0.05 | 9.13 | 10.3 | 1.8 | 3.5 | 0.37 | 9.6 | 8.45 | 9.43 | 8.75 | 6.8 | -4 | 8.17 | 90 | 10.1 | 14 | VTHRLAGLLSRSGGVVC(Ethyl(2-palmitoyloxy))NNFVPTNVGSKAF-NH2 [K24C(S-Pam) CGRP8-37 A5] | –
0.46 | 0.14 | 9.34 | 9.86 | – | – | – | – | – | – | – | 1.7 | < 2 | 8.78 | 20 | 10.7 | 3.3 | CVTHRLAGLLSRSGGVVKNNFVPTNVGSKAF (Cys 7 (CGRP numbering; residue 1 of the entry) S-conjugated to 2-(palmitoyloxy)ethyl (S-Pam); C-terminal amide) [7C(S-Pam) CGRP7-37 B1] | –
